# Assay results published in publication PMC3582507, “A Safeguard Mechanism Regulates Rho GTPases to Coordinate Cytokinesis with the Establishment of Cell Polarity” (PLoS Biology, 2013).
# Target: T1, 6His-Gps1-1-290 (S. cerevisiae, UniProt Q99299 1-290)
# T1 construct: Gps1, budding yeast, ORF YPL158C, amino acids 1-290; also called 6His-GPS1 (amino acids 1-290); source: E. coli BL21 (DE3), purified (Ni-NTA agarose)
# T1 sequence (looked up): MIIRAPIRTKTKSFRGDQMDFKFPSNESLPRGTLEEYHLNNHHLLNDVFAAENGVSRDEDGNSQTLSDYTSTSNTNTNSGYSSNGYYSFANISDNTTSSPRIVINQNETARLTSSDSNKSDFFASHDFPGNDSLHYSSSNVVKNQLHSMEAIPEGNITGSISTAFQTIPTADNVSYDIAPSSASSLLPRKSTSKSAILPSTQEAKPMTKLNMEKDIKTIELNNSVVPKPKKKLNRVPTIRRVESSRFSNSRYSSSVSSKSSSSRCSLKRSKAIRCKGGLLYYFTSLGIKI
# Assay: pull-down; 6His-Gps1-1-290 bound to Ni-NTA agarose beads, incubated with GST or GST fusion proteins 1 h at 4°C in 50 mM Tris-HCl pH 7.4, 10% glycerol, 100 mM NaCl, 1 mM EDTA, 1 mM DTT, 0.5% NP-40; SDS-PAGE and Western blotting
# Settings: both partners purified
row,Binder,binding result
1,"GST-Cdc42 (natural protein, Cdc42, Rho GTPase of budding yeast; source: E. coli BL21 (DE3), purified) not shown",binds
2,"GST-Cdc42-Q61L (natural protein, Cdc42, Rho GTPase of budding yeast, nucleotide-locked mutant Q61L; source: E. coli BL21 (DE3), purified) not shown",binds
3,"GST-Cdc42-D57Y (natural protein, Cdc42, Rho GTPase of budding yeast, nucleotide-locked mutant D57Y; source: E. coli BL21 (DE3), purified) not shown",binds
4,"GST-Rho1 (natural protein, S. cerevisiae, UniProt P06780 1-209, looked up, Rho1, Rho GTPase of budding yeast; source: E. coli BL21 (DE3), purified) MSQQVGNSIRRKLVIVGDGACGKTCLLIVFSKGQFPEVYVPTVFENYVADVEVDGRRVELALWDTAGQEDYDRLRPLSYPDSNVVLICFSIDLPDSLENVQEKWIAEVLHFCQGVPIILVGCKVDLRNDPQTIEQLRQEGQQPVTSQEGQSVADQIGATGYYECSAKTGYGVREVFEAATRASLMGKSKTNGKAKKNTTEKKKKKCVLL",binds
5,"GST-Rho1-G19V (natural protein, S. cerevisiae, UniProt P06780 1-209, looked up, Rho1, Rho GTPase of budding yeast, nucleotide-locked mutant G19V; source: E. coli BL21 (DE3), purified) MSQQVGNSIRRKLVIVGDVACGKTCLLIVFSKGQFPEVYVPTVFENYVADVEVDGRRVELALWDTAGQEDYDRLRPLSYPDSNVVLICFSIDLPDSLENVQEKWIAEVLHFCQGVPIILVGCKVDLRNDPQTIEQLRQEGQQPVTSQEGQSVADQIGATGYYECSAKTGYGVREVFEAATRASLMGKSKTNGKAKKNTTEKKKKKCVLL",binds
6,"GST-Rho1-G22A (natural protein, S. cerevisiae, UniProt P06780 1-209, looked up, Rho1, Rho GTPase of budding yeast, nucleotide-locked mutant G22A; source: E. coli BL21 (DE3), purified) MSQQVGNSIRRKLVIVGDGACAKTCLLIVFSKGQFPEVYVPTVFENYVADVEVDGRRVELALWDTAGQEDYDRLRPLSYPDSNVVLICFSIDLPDSLENVQEKWIAEVLHFCQGVPIILVGCKVDLRNDPQTIEQLRQEGQQPVTSQEGQSVADQIGATGYYECSAKTGYGVREVFEAATRASLMGKSKTNGKAKKNTTEKKKKKCVLL",binds
